± gives the standard deviation.
Assay: protein stability index of a GFP-peptide fusion (GPS, HEK-293T) (PSI 1-6); higher = more stable
[1] = treatment: DMSO, c terminus: a fixed tail appended
[2] = treatment: MLN4924 1 uM, 8 h, c terminus: a fixed tail appended
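Also: 24-mer peptide tiles fused after GFP, lentivirally expressed, FACS-sorted into six equal bins by GFP/DsRed ratio, decoded by Illumina sequencing, PSI is the read-weighted mean bin number.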

Row | Sequence | protein stability index [1] | protein stability index [2] | protein stability index (treatment: DMSO, c terminus: native) | protein stability index (treatment: MLN4924 1 uM, 8 h, c terminus: native)
1 | QSNVLCSIFGICMVFSGLCPLLLG [PTGFR] | 2.75 ± 0.23 | 2.63 ± 0.34 |  | 
2 | YCDLPQLFQLSCSSTQLNELLLFA [OR3A1] | 2.61 ± 0.36 | 2.64 ± 0.57 |  | 
3 | KQIAGGDVTAKNIWLAESVLDILT [INTS3] | 2.2 ± 0.064 | 2.13 ± 0.26 |  | 
4 | YYYTKVMSELFLHTPSDTGVSFQA [PKD2L1] | 2.74 ± 0.59 | 2.67 ± 0.64 |  | 
5 | SYAFPKEFPYRMNHILECEFYLLE [CCNC] | 2.24 ± 0.57 | 2.7 ± 1.1 |  | 
6 | DQFDKDLPVYLKKDPAYFYGYVYF [DENND6A] | 2.46 ± 0.71 | 2.19 ± 0.59 |  | 
7 | EESEEERGLEPGKGRHHRGRGGEP [CHGB] | 5.59 ± 0.17 | 5.51 ± 0.25 |  | 
8 | ASGHEPGGSAVCASRVKLQHLPAQ [PLEKHN1] | 4.11 ± 0.27 | 3.95 ± 0.14 |  | 
9 | LVTGGELFEDIVAREYYSEADASH [CAMK2A] | 3.92 ± 0.37 | 3.91 ± 0.17 |  | 
10 | PLSPIQASSVHLKSESSLPHQTSK | 5.02 ± 0.19 | 5.05 ± 0.088 |  | 
11 | VITKHNDDEQYAWESSAGGSFTVR [HSP90AB1] | 3.98 ± 0.2 | 4.16 ± 0.21 |  | 
12 | PRLQQLLKTLEEGLEGLEDAPPVE [FANCE] | 4.41 ± 0.16 | 4.34 ± 0.3 |  | 
13 | TIAAIDGLALGGGLELALACDIRV [AUH] | 2.39 ± 1.2 | 2.33 ± 0.59 |  | 
14 | PPAELKAEPGFEPADCKRKEEAGA [CEBPB] | 5.55 ± 0.23 | 5.68 ± 0.13 |  | 
15 | RPGETGMDVTSRCTLGDPNKLPEG [KLHL20] | 5.16 ± 0.31 | 5.11 ± 0.14 |  | 
16 | DQTGSKSSNLLDLKNPFFRYTGTT [CARM1] | 3.44 ± 0.18 | 3.28 ± 0.13 |  | 
17 | DENLDRMVPISKQPKEKIQAIIES [NOL4L] | 4.88 ± 0.38 | 4.83 ± 0.21 |  | 
18 | QNQNITLDCEGTTNKMKSPETKQR [KMT2E] | 5.37 ± 0.12 | 5.3 ± 0.12 |  | 
19 | PREDGASVNDQCGFGVLRLDADAA [TSPAN10] | 4.38 ± 0.31 | 4.15 ± 0.17 |  | 
20 | YPHTRIQSLVSILRTTVHHAFPVV [CLCN6] | 2.42 ± 0.57 | 2.14 ± 0.15 |  | 
21 | DLDFKHHNYKEMRQLMKVVNEMCP [CPXM2] | 2.93 ± 0.21 | 2.66 ± 0.31 |  | 
22 | EGKMYTARKGKGAFCNGQKLQVSQ [IMPA1] | 3.52 ± 0.33 | 3.93 ± 0.32 |  | 
23 | QVLLKGMTSISLPSVMDPGAFETV [ZBTB22] | 2.61 ± 0.36 | 2.84 ± 0.37 |  | 

Row | Sequence | protein stability index [1] | protein stability index [2] | protein stability index (treatment: DMSO, c terminus: native) | protein stability index (treatment: MLN4924 1 uM, 8 h, c terminus: native)
24 | VGFIMAGTPMALIVISYIHVAAAV [OR3A1] | 3.27 ± 0.35 | 2.87 ± 0.32 |  | 
25 | FYTAITKKIFKSHLKSSRNSTSVK [P2RY14] | 2.18 ± 0.33 | 2.32 ± 0.55 |  | 
26 | PSCLACNRQCLCSAESMVEYGTCM [SPRY1] | 2.84 ± 0.58 | 2.84 ± 0.48 |  | 
27 | LYCSTPTRTAEPAESSVPPVTSIG [SLC35F2] | 3.98 ± 0.25 | 4.08 ± 0.2 |  | 
28 | DTRLRYSFFVPRPTPSTPRPTPQD [ADAMTS4] | 3.64 ± 0.15 | 3.74 ± 0.089 |  | 
29 | FIVDILQFLDIGPDVTRVGLLQYG [MATN2] | 3.11 ± 0.51 | 2.94 ± 0.82 |  | 
30 | GHSHHSHHGHPSHQSHSLPNRRH [C10orf62] |  |  | 2.97 ± 0.49 | 3.71 ± 0.35
31 | TRRRAVGWWKRLFTLKEEKPKMYF [ARL6IP1] | 2.25 ± 0.39 | 2.11 ± 0.32 |  | 
32 | ELVENIKSVLKSDEEHMEEAITSA [FAM189A2] | 3.64 ± 0.16 | 3.79 ± 0.41 |  | 
33 | WKKLVLVDRNTRPGPQDPEESASR [ELOA2] | 4.28 ± 0.16 | 4.46 ± 0.11 |  | 
34 | KLKPLGEAEREFILNLKKKECKDR [NLN] | 4.17 ± 0.23 | 4.45 ± 0.2 |  | 
35 | ERFIQYLASRNTLFNLSNFLDKSG [SNAP91] | 2.4 ± 0.26 | 2.53 ± 0.61 |  | 
36 | IREDRDRARLDSMVLLIMKLDQLD [DLC1] | 2.35 ± 0.45 | 2.18 ± 0.32 |  | 
37 | RYFSLSLMSGALAVNQKIDRESLC [PCDHGC5] | 2.03 ± 0.21 | 2.1 ± 0.28 |  | 
38 | LGAEESLGLLDDYLEVAKHFKPHG [ATF4] | 3.24 ± 0.33 | 3.56 ± 0.36 |  | 
39 | LEIYQSSQDEPIALDKQHSRDSAA [NOL4L] | 4.89 ± 0.24 | 5.16 ± 0.12 |  | 
40 | EERRVVHASGDASYSAGDSGDAAA [EPB41L3] | 5.49 ± 0.32 | 5.42 ± 0.17 |  | 
41 | ETDHLSMEEEDPMPRQISRQSSVT [TPRG1] | 5.37 ± 0.21 | 5.28 ± 0.36 |  | 
42 | AEEFEQPTLSCEKYLTYDQLRKQK [ELOA2] | 4.71 ± 0.31 | 4.9 ± 0.11 |  | 
43 | QRLEEETRKREDAEHNLVLFRKDV [PRPH] | 5.12 ± 0.18 | 5.13 ± 0.17 |  | 
44 | IIHVVKDQLIGQGIIVKDARLNGS [TENT5D] | 2.2 ± 0.18 | 2.25 ± 0.72 |  | 
45 | SSRSSEESSSDSGSSDSEEERATR [BRD3] | 5.06 ± 0.33 | 5.08 ± 0.2 |  | 
46 | TGNSLNEPEEPSEIPERRDSGVGA [DLC1] | 5.58 ± 0.19 | 5.59 ± 0.26 |  | 

Row | Sequence | protein stability index [1] | protein stability index [2] | protein stability index (treatment: DMSO, c terminus: native) | protein stability index (treatment: MLN4924 1 uM, 8 h, c terminus: native)
47 | SKGMSIFLDILRRADKNDDGKLSF [NECAB1] | 2.27 ± 0.12 | 2.33 ± 0.17 |  | 
48 | AQRKEERWDMADNEQVLTTEHEKK [YJU2B] | 5.57 ± 0.21 | 5.6 ± 0.12 |  | 
49 | QKYKLFQQQQLTFTAALEHCRENA [SPACA9] | 2.86 ± 0.24 | 3.12 ± 0.29 |  | 
50 | SGDCDQRFRFPSPILKVQYHPRDQ [RBBP5] | 3.8 ± 0.19 | 3.74 ± 0.27 |  | 
51 | PPLPLHPGGDQGGPPVGPLSLGLA [WAS] | 4.26 ± 0.25 | 4.45 ± 0.15 |  | 
52 | RRALAPPSAGFRCCAAPGPHVALA [ANKRD9] | 1.98 ± 0.47 | 2.25 ± 0.31 |  | 
53 | SFTQEQVADIDGQYAMTRAQRVRA [CTNNB1] | 4.62 ± 0.19 | 4.62 ± 0.14 |  | 
54 | CPSPEALSPEPPVYSLQDFDTLAT [PRKX] | 4.61 ± 0.26 | 4.84 ± 0.053 |  | 
55 | ESEPPAPNIRNMAPNSLSAPTMLH [TRAF3IP2] | 4.54 ± 0.24 | 4.37 ± 0.34 |  | 
56 | TFGDHHKDRRFAYGRSDVVVLCFS [RHOBTB1] | 2.38 ± 0.53 | 2.43 ± 0.55 |  | 
57 | IVRRFLNICENTEGAIAVHCKAGL [CDC14A] | 2.36 ± 0.39 | 2.11 ± 0.23 |  | 
58 | LHKQVLMGPYNPDTCPEVGFFDVL [ACBD3] | 2.4 ± 0.31 | 2.18 ± 0.21 |  | 
59 | NSSGDIGKKEIKPFKRFLRKKSKP [SMOC2] | 4.15 ± 0.4 | 4.19 ± 0.68 |  | 
60 | CFRFRQSSGRRVSLHCLLDQFDKD [DENND6A] | 2.5 ± 0.73 | 2.41 ± 0.53 |  | 
61 | GPMMKLKRHFVAQKYKKQIDHMYH [ACSBG2] | 2.1 ± 0.14 | 2.42 ± 0.37 |  | 
62 | NDNSSDLLYDDLYDDDIDDEDEEE [UBE2R2] | 5.61 ± 0.41 | 5.63 ± 0.18 |  | 
63 | RPPGHHAQHSLMDGYCMFNHVAVA [HDAC6] | 2.4 ± 0.43 | 2.27 ± 0.23 |  | 
64 | SFCELHLKPHLEGAAFRDHQLLEP [TRIM29] | 2.87 ± 0.14 | 2.93 ± 0.087 |  | 
65 | VSSEDSFVCQCFEGYILREDGKTC [MATN2] | 3.04 ± 0.26 | 3.08 ± 0.57 |  | 
66 | CGKSFSRSSHLVIHERTHERERLY [ZNF263] | 2.71 ± 0.13 | 2.86 ± 0.33 |  | 
67 | HNYKEMRQLMKVVNEMCPNITRIY [CPXM2] | 2.11 ± 0.37 | 2.17 ± 0.31 |  | 
68 | DEHEHPLTSELDPEKEQEIETIKI [MIA2] | 5.33 ± 0.42 | 5.36 ± 0.42 |  | 
69 | LADDHLIEVNGENVEDASHEEVVE [PDZK1] | 5.65 ± 0.1 | 5.54 ± 0.24 |  | 

Row | Sequence | protein stability index [1] | protein stability index [2] | protein stability index (treatment: DMSO, c terminus: native) | protein stability index (treatment: MLN4924 1 uM, 8 h, c terminus: native)
70 | KGKVLAQQGEYSEAIPILRAALKL [FKBP8] | 2.37 ± 0.38 | 2.42 ± 0.56 |  | 
71 | VQLHNGTKYKKFPHWLDKWMLTRK [STEAP1] | 2.36 ± 0.044 | 2.19 ± 0.096 |  | 
72 | HGNLSEEAAKQMRSRGKVLKTKDG [CPOX] | 5.22 ± 0.2 | 5.41 ± 0.2 |  | 
73 | FFYDCSNNPISEHFHPTVIGESMY [TENT5C] | 2.16 ± 0.43 | 2.26 ± 0.16 |  | 
74 | SCLSSQSSALSQSGGGSTSAAGIE [SPACA3] | 4.78 ± 0.13 | 4.82 ± 0.063 |  | 
75 | DWYQRQRPSEIKDYSPYFKTIEDL [KRT16] | 2.74 ± 0.28 | 2.9 ± 0.32 |  | 
76 | KMKHHLTEHMKTHTGLKPYECGVC [ZBTB22] | 3.32 ± 0.28 | 3.5 ± 0.47 |  | 
77 | AGPQSQVLCGVVMDRSLVQDAPLS [ADD1] | 3.62 ± 0.2 | 3.59 ± 0.11 |  | 
78 | GSAYLFVESSLDKVVLSDAYAHPQ [TRADD] | 2.22 ± 0.35 | 2.37 ± 0.54 |  | 
79 | SGGSGGRGTGQLNRFVQLSGRPHL [KLHDC10] | 3.48 ± 0.28 | 3.65 ± 0.16 |  | 
80 | YGLDSVKKKCLEWLLNNLMTHQNV [GMCL1] | 3.09 ± 0.26 | 2.73 ± 0.21 |  | 
81 | AEGNNQAPGEEEEEEEEATNTHPP [CHGA] | 5.35 ± 0.43 | 5.61 ± 0.34 |  | 
82 | EQGFQEGVPNASVIMQVPERIVVA [MFF] | 3.76 ± 0.35 | 3.83 ± 0.042 |  | 
83 | ERSSFYSCAGGRLFQQSCPTGLVF [CHIT1] | 1.99 ± 0.15 | 2.13 ± 0.18 |  | 
84 | PAQVHSSLSAGEKPGFLAPRDLPK [RASAL3] | 4.63 ± 0.34 | 4.77 ± 0.41 |  | 
85 | DGVKESSESTNTTIEDEDTKVRKQ [CAMK2A] | 5.65 ± 0.13 | 5.59 ± 0.29 |  | 
86 | MEDGSLDITQSIEDDPLLDAQLLP [TMEM192] | 5.28 ± 0.24 | 5.18 ± 0.16 |  | 
87 | SVEAGGSVHFDGETIEGAPPLWAA [FEM1A] | 4.09 ± 0.15 | 4.12 ± 0.48 |  | 
88 | YGCKVADIKKVNNFIREQDLYALK [LYSMD4] | 2.27 ± 0.22 | 2.39 ± 0.21 |  | 
89 | DLHFKMFDVGGQRSERKKWIHCFE [GNAI1] | 1.73 ± 0.25 | 2.64 ± 0.35 |  | 

From the supplement of paper PMC10567573
